In PMC2082129, “A Switch in the Mechanism of Communication between the Two DNA-Binding Sites in the SfiI Restriction Endonuclease” (Journal of Molecular Biology, 2007):

Molecular target: the molecule itself
Assay: AUC; sedimentation equilibrium at 20 °C; 2.5 μM enzyme (tetramer) with 2.5 μM HEX-21 DNA duplex; AUC buffer (10 mM Tris-HCl, 50 mM NaCl, 10 mM CaCl2, 1 mM DTT, pH 7.9); absorbance of the HEX label at 539 nm; 10,000, 15,000 and 25,000 rpm, global fit to a single species; oligomeric state of the protein bound to DNA

Protein | stoichiometry N
SfiI restriction endonuclease, wild type (enzyme, SfiI restriction endonuclease, expressed from the SfiI restriction gene on pRRS-SfiIR+; tetramer of identical subunits, Mr of the tetramer printed as 124,176; The plasmid carries the SfiI restriction gene, and the printed tetramer Mr of 124,176 fits four whole subunits; In the AUC the protein stood with the 21-bp DNA duplex HEX-21 and Ca2+; also called wt SfiI; SfiI endonuclease; source: E. coli …) MHQDYRELSLDELESVEKQTLRTIVQALQQYSKEAKSIFETTAADSSGEVIVLAEDITQYALEVAETYPINRRFAGFIDYKRVRWLPSPHGLLPQVLLVDAKASTEKNRDTLQRSQLPMDAEFRNTSSGEVVTMEAGVIPHLMLQSANDGVLPAVTTSIFVHFYYRELKDVEGRYRELKSIYVLSLPHARLKQRYNPDPDTSFFGAGKHSPARGEVARIRVYFDRLKEACPWRLQELHYSADSEYTQPRWRDLNDAGHEVTKEFLFLER | 4
SfiI restriction endonuclease, Y68F mutant (enzyme, SfiI restriction endonuclease with Tyr68 replaced by Phe (QuikChange mutagenesis of pRRS-SfiIR+); Same construct as m1 apart from Y68F; also called Y68F protein; source: E. coli ER2238 (transformed with pSYX33-SfiIM+ and a derivative of pRRS-SfiIR+), purified as described previously) MHQDYRELSLDELESVEKQTLRTIVQALQQYSKEAKSIFETTAADSSGEVIVLAEDITQYALEVAETFPINRRFAGFIDYKRVRWLPSPHGLLPQVLLVDAKASTEKNRDTLQRSQLPMDAEFRNTSSGEVVTMEAGVIPHLMLQSANDGVLPAVTTSIFVHFYYRELKDVEGRYRELKSIYVLSLPHARLKQRYNPDPDTSFFGAGKHSPARGEVARIRVYFDRLKEACPWRLQELHYSADSEYTQPRWRDLNDAGHEVTKEFLFLER | 4
